Measurements as given in US20240301039A1 (NEW YORK UNIVERSITY IN ABU DHABI, published 2024).

Tests used:
[1] = target: T1, SARS-CoV-2 C14S,C23S,C73S NSP9 (triSer-NSP9) (SARS-CoV-2, UniProt P0DTC1 4141-4253); assay: ELISA signal on INS over uncoated blocked well
T1 construct: also called NSP (dissolved in ammonium acetate); INS (dissolved in DMSO and diluted in PBS)
T1 chain: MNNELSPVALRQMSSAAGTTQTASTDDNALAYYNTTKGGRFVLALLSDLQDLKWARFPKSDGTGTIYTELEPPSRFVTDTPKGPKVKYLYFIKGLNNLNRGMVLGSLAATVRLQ

[2] = target: T1, SARS-CoV-2 C14S,C23S,C73S NSP9 …; assay: ELISA signal on NSP over uncoated blocked well
[3] = target: T2, SARS-CoV-2 C14S,C23S,C73S NSP9 (triSer-Nsp9) (SARS-CoV-2, UniProt P0DTC1 4141-4253); assay: ELISA signal on INS over uncoated blocked blank
T2 construct: also called NSP (dissolved in ammonium acetate); INS (dissolved in DMSO/PBS)
T2 chain: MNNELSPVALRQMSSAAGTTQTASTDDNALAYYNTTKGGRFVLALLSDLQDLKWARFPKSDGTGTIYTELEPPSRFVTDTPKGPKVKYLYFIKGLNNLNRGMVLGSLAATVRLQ

[4] = target: T2, SARS-CoV-2 C14S,C23S,C73S NSP9 …; assay: ELISA signal on NSP over uncoated blocked blank
[5] = target: T2, SARS-CoV-2 C14S,C23S,C73S NSP9 …; assay: ELISA, periplasmic extract; Nsp9 in DMSO/PBS (INS) coated
[6] = target: T2, SARS-CoV-2 C14S,C23S,C73S NSP9 …; assay: ELISA, periplasmic extract; Nsp9 in ammonium acetate (NSP) coated

B1: 3NSP56 (VHH)
VHH: QVQLQESGGGLVQAGGSLRLSCAASGRTFSRYAMGWFRQAPGKERESVAAINWSGTSIFYANSVEGRFTISRDNAKNTVYLQLNSLKPEDTAVYYCAADLVRNYRLGWGDGVYDHYGQGTQVTVSS
With B1 the INS/control [1] was 2.61 and the NSP/control [2] was 5.47.

B2: 2NSP90 (VHH)
VHH: QVQLQESGGGLVQTGDSLRLSCAVSGRTFSTYSVGWFRQAPGKEREFVALRWSGGTTYYADSVVGRFTVSRDNAKNTVYLEMNSLKPEDTAVYYCAADRGSGSYSPTYRWDYWGQGTQVTVSS
With B2 the INS/control [3] was 21, the NSP/control [4] was 50.8 and the “ELISA INS” value [5] was 1.98. For the same binder, the “ELISA NSP” value [6] was 4.78.

B3: 2INS61 (VHH)
VHH: QVQLQESGGGLVQAGGSLRLSCAASGSIFSINTMGWYRQAPGKQRELVAAITSGGSTNYADSVKGRFTISRDNAKNTVHLQMNSLKPEDTAVYYCNVVEGWGPPVGYWGQGTQVTVSS
In the case of B3, the INS/control [3] is reported as 2.75, the NSP/control [4] is reported as 8.02 and the “ELISA INS” value [5] is reported as 1.84. For the same binder, the “ELISA NSP” value [6] was 5.36.

B4: 3INS39 (VHH)
VHH: QVQLQESGGGLVQAGGSLRVSCEVSGIMFGINTMGWYRQAPGKQRELVAHITSSGSTNYADSVKGRFTISRDNAKKTVYLQMNSLKPEDTAVYYCNVVAGWGPPPGYWGQGTQVTVSS
B4 was tested, and the INS/control [3] was 2.7, the NSP/control [4] was 4.42 and the “ELISA INS” value [5] was 2.49. For the same binder, the “ELISA NSP” value [6] was 4.07.

B5: 2INS69 (VHH)
VHH: QVQLQESGGGLVRAGDSLRLSCAVSGRTFSSVAMGWFRQAPGKEREFVAFISGSTGSVTYYADSVKGRFAISRDNAKNTVYLQMNSLKPEDTAVYDCAAKFTGTFNYQGLYDYWGQGTQVTVSS
Binder B5 has an INS/control [1] of 14.1 and an NSP/control [2] of 13.8.

B6: 3NSP78 (VHH)
VHH: QVQLQESGGGLVQAGGSLRLSCAASGRAFSSYVMGWFRQAPGKEREFVAAIHWTGAATVYVDSVKGRFAISRHNAKNTVYLEMNSLKPEDTAVYYCAADPSGSYWPPKRYDYWGQGTQVTVSS
B6 showed an INS/control [1] of 28.6 and an NSP/control [2] of 47.2.

B7: 3NSP29 (VHH)
VHH: QVQLQESGGGLVQAGGSLRLSCAASGRTFSRYAMGWFRQAPGKERESVAAINWSGTSIFYANSVEGRFTISRDNAKNTVYLQLNSLKPEDTAVYYCGVVLNGMPYWGRGTQVTVSS
Work on B7 yielded an INS/control [1] of 1.84 and an NSP/control [2] of 3.85.

B8: 2INS45 (VHH)
VHH: QVQLQESGGGLVQAGGSLRLSCAASGFTLSSNDMGWYRQAPGKQRELVATITSGLSTNYADSVKGRFTISRDNAKNTVFLQMNSLKIEDTAVYYCEVERGWGPPRDYWGHGTQVTVSS
B8 gave an INS/control [1] of 26.9 and an NSP/control [2] of 45.

B9: 2INS27 (VHH)
VHH: QVQLQESGGGLVQAGGSLRLSCATSGSIFSSAVMGWYRQAPGNERELVALIGSSDTTDYSNSVKGRFTISRDNAKNTAYLRMNSLKPEDTAVYYCTAVKYGLGGFVYWGQGTQVTVSS
B9 was tested, and the INS/control [3] was 31.3, the NSP/control [4] was 28.9 and the “ELISA INS” value [5] was 3. The “ELISA NSP” value [6] was 2.77.

B10: 2INS64 (VHH)
VHH: QVQLQESGGGLVQVGGSLRLSCAASGSILSINAMGWYRQAPGKQRELVAAITSGGSTNYADSVKGRFTISRDNAKNMLYLQMNSLKPEDTAVYYCHVVTGWGPLDWGQGTQVTVSS
With B10 the INS/control [1] was 26.7 and the NSP/control [2] was 45.2.

B11: 3NSP52 (VHH)
VHH: QVQLQESGGGLVQPEGSLRLSCAASGLTFDSYAIGWFRQAPGKEREFVAASIWSGDSGHYTGSVKGRFTISRDNAKNTVDLQMNSLKPEDTAVYYCAASASFLHSANYHMRAKWGYWGQGTQVTVSS
For B11, the INS/control [3] was 23.6, the NSP/control [4] was 34.2 and the “ELISA INS” value [5] was 2. The “ELISA NSP” value [6] was 2.91.

B12: 2NSP23 (VHH)
VHH: QVQLQESGGGLVQPGGSLRLSCAASGLAFSMYTMGWFRQAPGKEREFVAMIISSGDSTDYADSVKGRFTISRDNGKNTVYLQMDSLKPEDTAVYYCAAPKFRYYFSTSPGDFDSWGQGTQVTVSS
B12 was tested, and the INS/control [3] was 16.8, the NSP/control [4] was 41.8 and the “ELISA INS” value [5] was 1.72. For the same binder, the “ELISA NSP” value [6] was 4.28.
